Data reported in the DeepSol protein solubility set.

Assay: soluble on expression in E. coli; label from the status in PepcDB or PDB records

Q: With “MPISELEKKWTGLTFEIAAEEMRRLKSEPTDRERLKLYALYKQALHGDIPNEDVYPVPAGDEVGRKKYAAWKSQKGANSEKCRADYVAIAEEMIKKYGRNIVRCKWNSEVWSVDY” as the sequence, how does the “soluble on expression in E. coli” value read?
A: Its value is “soluble”.

Q: With “MPISTPQEIIEDIRQGKMVILMDDEDRENEGDLIMAAEHITPAAINFMATHGRGLICLTLTKERCRRLGLNPMVQDNNAQYTTNFTVSIEAAEGVTTGISAADRARTVQAAVAKEAKAADLVQPGHIFPLAAQDGGVLTRAGHTEAGCDLARLAGLEPASVIVEILNDDGTMARRPDLEVFAEKHGLKLGTIADLIEYRNHTETTIERVAQCKLPTEYGEFELVTYRDIIDKQIHFALRKGDITSAPTLVRVHLQDTFTDLLHSNRAAERSWPLATAMQRIGQEGGVLVILGHEESSELLLHRVKMFELQDKGEAPAMAKKQGTSRRVGVGSQILADLGVKEMRLLSSPNKKYHALGGFGLNVVEYVCE” as the sequence, how does the “soluble on expression in E. coli” value read?
A: Its value is “not soluble”.

Q: Which “soluble on expression in E. coli” value does the source give for “MPIWNHNTAYRPWLVSKLKGSRSLLDVGSGDHSFADLAGRQVAHVDVVDPLINTTFEEFQPTQSYDAITFIASLHHMNAEEGLNKAVRILNPGGKLLIVGLAKNKTASDWIISGLQAFLSRPISLINREQQIYPFPTKEPSESLHEIRQLTKQLLPHRRIRRGIHFRYLLEWTKPLEHHHHHH” here?
A: Its value is “not soluble”.

Q: Which “soluble on expression in E. coli” value does the source give for “MPKETFYNLSEEKRQRIINSAEKEFFRVPLSKASIANIVTGAQIPRGSFYQYFDDLNDLYHYFFEKKFQGFHENFKKELENHQGDLIEAWRQVAKKVLRRIVNSENSIFFENAIFGLNIQRDQNIIDSFANFHHPENKAPEYFDEIDFSFLKIKSKKDLITLRHIMSGIIIQAATAYFSKCDSGQKVDLEEILEGIDKQIDWLKYGVYKEKEHD” here?
A: Its value is “not soluble”.

Q: Which “soluble on expression in E. coli” value does the source give for “MPKLPLLLSFPLLFFASFAYADEDFVTCYSVLKFINANDGSRLHSHDVKYGSGSGQQSVTAVKNSDDINSHWQIFPALNAKCNRGDAIKCGDKIRLKHLTTGTFLHSHHFTAPLSKQHQEVSAFGSEAESDTGDDWTVICNGDEWLESEQFKLRHAVTGSYLSLSGQQFGRPIHGQREVVGTDSITGGSAWKVAEGIYIKHQQKDL” here?
A: The value was “soluble”.

Q: Which “soluble on expression in E. coli” value does the source give for “MPKYYCDYCDTFLTHDSPSVRKTHNGGRKHKDNVRMFYQKWMEDQAQKLVDQTARAFATNRMQGAVPRTTMGMAPVPPVGHHPMMGGPPGMPMMAPRPFPGPGVGFPGAPGMPPFPGGPMGMAGPPGMPPMMPRPPQQFRPM” here?
A: The value was “not soluble”.

Q: For “MPLADIADVDIDPKGVFKYILIQVTDNSTKQQKFVVRGYYRCSFHDDILQETKSSAPSDLKLKCVGGGRIKHDEIGKDILVYGYSYGYGRADHQIAVDILKQKYPDYNIHFSNDGY”, which “soluble on expression in E. coli” value is on record?
A: Its value is “not soluble”.

Q: With “MPLALDDGDVNLSELRAFDLLGRCETGSIVNTVSLSSTGNYLAAGGFDHKVYYYDSRGTQLWNYTTGDIVYTVSISSDGSRIAAGSNDRKVYFFNREGELLWSRKTGGNINSVAVSSEGLYIATGGEDGKVYFLDKDGKLLWSFNSGDAVRSVAISRDGDYVLEHHHHHH” as the sequence, how does the “soluble on expression in E. coli” value read?
A: Its value is “not soluble”.

Q: Which “soluble on expression in E. coli” value does the source give for “MPLDPICKKIISRDTEYFSDYGGKNYYFCSSECKHKFDALEKSVIRLKRNLSEKEKISFGKLKRDIIKPGICTLCGACAASCEYITIKDEKPELIGPCKACGVCYYQCPRTITTEEGLIGSFRYAYAAQSAIPEIKGQDGGVVTSLLLYALDEGLIDCAVVTVHSEEEPWKPVPIVAKTREEILKSSGSIYSHSMTLEALMSAVKQGMNSVAFVGTSCNIDAVTKMQKSSYGFLHLFMRAKVLKLGLFCMDTFAYEGIKAVLESYGITLDNVDAMKIRKGKFEVALKDGKEHIFELSEFDEYRSSSCRFCTDLTAENSDISFGGVGSPRGYTTVLARSAIGYEIFNEAIDNGYIEARQLTDDELEKVLNLAKMKKVQMYDLHRRQKTLEHHHHHH” here?
A: The value was “not soluble”.

Q: With “MPLEASELKPTAGPLEASELKPTAGPLEASELKPTAGPLEASELKPTAGPLEASELKPTAGPLEASELKPTAGPLEASELKPTAGMTDAFIFENKKAAFLTLGCKLNFAETSTIGKALAEQGVRPVREGEKADICVINTCSVTELADKKCRNAIRKLHKEHPGALMIVTGCYAQLKPEEIARIDGVDIVLGADEKLDLVSILSQRPIQGFAEQTILTTPTKDIRKFQPGCSADDRTRHFLKVQDGCDYHCSYCTIPKARGRSRNGSIESLVRQAEAVAAEGGKEIVLTGVNIGDFGRSTGETFLDLLRALDQVEGIERYRIGSIEPNLLSDELIDFCASAHRIAPHFHMPLQSGSDDVLKLMRRRYDTALFRERVEHIRRALPHAFIGIDVIVGTRGEKPEFFEDCYSFLQDKISFSRLHVFSYSERPGTQALQIPYKVDAREKQRRSRRLLDLSDLRLAEFYRSQEGTHRRVLWEDVCHEGLMQGFTENYIRVAAPYAADSVGKVEEIVLGKTDPSGEYVQTADTIFPLEHHHHHH” as the sequence, how does the “soluble on expression in E. coli” value read?
A: The value was “soluble”.

Q: For “MPLGLGRRKKAPPLVENEEAEPGRGGLGVGEPGPLGGGGSGGPQMGLPPPPPALRPRLVFHTQLAHGSPTGRIEGFTNVKELYGKIAEAFRLPTAEVMFCTLNTHKVDMDKLLGGQIGLEDFIFAHVKGQRKEVEVFKSEDALGLTITDNGAGYAFIKRIKEGSVIDHIHLISVGDMIEAINGQSLLGCRHYEVARLLKELPRGRTFTLKLTEPRKAFDMISQRSAGGRPGSGPQLGTGRGTLRLRSRGPATVEDLPSAFEEKAIEKVDDLLESYMGIRDTELAATMVELGKDKRNPDELAEALDERLGDFAFPDEFVFDVWGAIGDAKVGRYLEHHHHHH”, which “soluble on expression in E. coli” value is on record?
A: Its value is “not soluble”.

Q: For “MPLTKRAVSPVNLSRGTIPSTIHRDELQCTANGTIANLVRQLSSLSKHAENIFGEIYHDAMIINHKSNTLQQRIDRLHKKVEDLDSNSDQATLNEANMRKAFKSSMLVDQHILDRSTLPTALTEIYAKCDPPPDLDALNPYRDSEIPALSLYTNPSFFFDLWKKETLKEVAERPRRVKSPNDGSKSPKKRRKQPGQGPLGTTAYNDMQHRNRQISGSRINQQNEVFSFPEEYQAPQALGLQLNFKNQHPSNMVAPIGMTMHHHPQQNVHPSQQRGGAPAAARGSPNVKRPTEAPPPVNLDHLPPPDMSILSIDDDDDDLPPPPPPLLMNTSIVHQLPAEAPSTIQFVEPSAAPPTNIPPPPPPPPPMVISSAAASFAAPAPKPSADGEAAGTNSPVAPKQPDARSDLLAQIQSGIKLKKVQRAEAEAAENAALEANNVAAILKRRMDQVMGNDDSSSEEGADDDEWDD”, which “soluble on expression in E. coli” value is on record?
A: Its value is “not soluble”.

Q: With “MPMTLDLQPGQRLARGVARHLRAHGFVSVEEFVPARGLRVDVMGLGPKGEIWVIECKSSRADFQADAKWQGYLEWCDRYFWAVDMEFPAELLPAESGLLIADAYDAEIVRMAPEQKLAPARRKVLIQKFATHAARRLQALRDPEGHG” as the sequence, how does the “soluble on expression in E. coli” value read?
A: Its value is “not soluble”.

Q: With “MPNHQPVKKFKIIGGACKGLGLNLPNISSTRPTKAIVRESFFNTLQAEINGAHFIEVFSGSASMGLEALSRGAKSAVFFEQNKSAYKTLLENISLFKNRLKKEMEIQTFLDDAFKLLPTLCLKNGVLNIIYLDPPFETSGFLGIYEKCFQALERLLKRFNPKNLLVVFEHESMHEMPKSLVTLAIIKQKKFGKTTLTYFQLEHHHHHH” as the sequence, how does the “soluble on expression in E. coli” value read?
A: Its value is “soluble”.

Q: Which “soluble on expression in E. coli” value does the source give for “MPNIDNVFSIYAGQLELLRQNGLIERTGEYICPICLNSFNKEQLNKLSMEDAPQASLGGKKIAITCKKCNNTCGHETDIHLVNFITYLEEQEFLPGSNRRVKIFDDETTINANLEVGNTKELKMIIPNKINNPKALTNHLSKLTVGGIIDIQNHPLKIDMKKVSTAILKNAYIILFARFGYSFLLNSFYDRIREQILNPAKHIIPESLWTKQTSISVKDGIYFSNSNVYRGFFIIYSLTKLRTHHFCICIPTPQVYFEAIAYYFREYKAGIPIYMMGSDGIDYFQNIDNIKALNKWLVNWSLGSPV” here?
A: The value was “not soluble”.

Q: For “MPNYDATHATSTETIHYVNEDGDQVFEDGGGKLDFTRTVTIDDVTNEVVEYGEWTPVTDDEFAAVTSPDKDGYTPDTSEVAAQKPDMTDGPDGTVKDVEVTVTYTANPAVATITYVDDDENGKTVKTLEHHHHHH”, which “soluble on expression in E. coli” value is on record?
A: The value was “soluble”.

Q: For “MPPPSPLHLDPIEEAHRQWTKHGWGDVADGMAAVTSVMRAQQIMMARVEEVLKPSGLTFARYELLTLLTFTRTGALPMAKASARLQVHPTSVTNAVDRLETANLVRRVPHPSDRRATLIEITDAGRKLAVESTERLNAQVFSRPGVSGDKLEQLVTILAELRREAGDFDTGDAPTKW”, which “soluble on expression in E. coli” value is on record?
A: The value was “not soluble”.

Q: For “MPQALSTDILIVGGGIAGLWLNARLRRAGYATVLVESASLGGGQSVKSQGIIHGGAKYALHGALTGASEAIADMPRRWRACLGSDGELDLRGVRLLSEAHYLWSPGGLAGSLTSFFASKAVRSRVEQAKGEDLPPALRDKGFKGKAYRLTEIVFDVPDLIRRLAELAGDSLLAGERIEPLREGRELAGLCVDGREIRAQRVVLSAGAGNEALLRELGLEQPAMQRRPLHMVMVKAATLKPLYAHCLGAGPKPRITVTTHPTRDGQSVWYLGGDIAETDGVARDEAAQIAEARRELAKLLPWIDLGQAQWATLRVDRAEPAQSNLLRPDNAFLAEQGRLLVGWPTKLALAPDFADRVCARLEEDGIRPSEHAALPQLPRPPLAEPAWEVAFALEHHHHHH”, which “soluble on expression in E. coli” value is on record?
A: The value was “not soluble”.

Q: With “MPQNAQEYYEKVKKFTKKKDGAIRAIEDTKKAMEKKAATKSAKAGRKLQASRKKHWYDRFRWFVSSDGFLVVGGRDADTNEEIFKKYMEKRDIVFHTQTPGAPLTVVKTGGKEVPDSTLQEVSQFAVSYSSLWKAGQFSGDCYWIKSEQVTKTPESGEYLKKGAFVIRGERNYFKDVPLGIAVGLELKGETRIIGGPASAVRKHGDYILEIIPGKFNQNDISKKIYRIYADELNDPRFVKQIASPDQIAMMIPAGESDLRNQKPEKKGQGFGPEGEGYETPEMEAGFEDLKGEIDEESGENAGEEFADEEFAEEIGEGSEVKVKAEAREGNEEIIEIRGVKKE” as the sequence, how does the “soluble on expression in E. coli” value read?
A: The value was “not soluble”.

Q: With “MPQVQSWFPVQKQPTLAVTFTPLPQLSHAHLPLPPSHLVTKTDAMFQHQLLPTQLQPFPPNHTPLLLLLTVTTMAVTPRLSLLNVLKKLQQPPFLQNHTLLLPLLTVTTTAVTPRLSLPRLPNKHHWPLAQSPSLLLQLLILLLPAPSLVLSFNPKVWLLV” as the sequence, how does the “soluble on expression in E. coli” value read?
A: The value was “not soluble”.

Q: Which “soluble on expression in E. coli” value does the source give for “MPRKRSVALAAWGEEGLLLVLRPQDDPEFPGAWGLPAVSLQGEETLEEAALRVAREKLGAEVAEAGPIAFGVEERPGYTLELWVYEGRLLGRPRLPEPKPGKTYYAAFRFGRPEELKAAARQGSLCSRLFLAVKGLCP” here?
A: Its value is “soluble”.

Q: Which “soluble on expression in E. coli” value does the source give for “MPRLDLCAKRTTDQCTSRVRLATRKGLTKLLLCSRESSIFKDEDIEQDDLRSSRTPWAALPPPPIKPIADSFRCDALVIGAGITGALVAERLTRQGRQVVIIDRELPSLGSTVASTAMLLWETDRPLFELAQLYNFEKAVRCYRASHHAARGLLALVTDHGIACQMRPRLSLYLAVDDSPKLVRNEYALRSRADLPTLFLDRVELLNRFGIARAGALLSRDAADADPVRLTRGLLDVSLQRGARLLKANAVAYDSAASTVTVGLENGLSIEARHVVLATGYVMPNIVGSTSNQPASSWAIATRRRPNALWPEQALIWEATRNYHYARTTPDGRVIFGGEDDDAIIDPEARAAATPAKVRALKERLKALWPRASTEVAFTWSGAFDTTRDGLPLIGAVPGYRNILAAFGYGGNGITFSFLAAELLGTLLSGGSSPLLDVLALDRDLPANDAPSDSQALEHHHHHH” here?
A: The value was “soluble”.

Q: For “MPRPRVLLLGDPARHLDDLWSDFQQKFEVIPANLTTHDGFKQALREKRYGDFEAIIKLAVENGTESYPWNADLISHLPSSLKVFAAAGAGFDWLDLDALNERGVAFANSRGAGDTATSDLALYLILSVFRLASYSERAARTGDPETFNRVHLEIGKSAHNPRGHVLGAVGLGAIQKEIARKAVHGLGMKLVYYDVAPADAETEKALGAERVDSLEELARRSDCVSVSVPYMKLTHHLIDEAFFAAMKPGSRIVNTARGPVISQDALIAALKSGKLLSAGLDVHEFEPQVSKELIEMKHVTLTTHIGGVAIETFHEFERLTMTNIDRFLLQGKPLLTPAGKVFAPSSAA”, which “soluble on expression in E. coli” value is on record?
A: Its value is “soluble”.
